B1: Pistol ribozyme (parent)
chain: GGGUCGUUGUUCCAUAAUCGCGUGGAUAUGGCACGCAAGUUUCUACCGGGCACCGUAAAUGUCCGACUGGAGCCGUUCGGGCGGCUAUAAACAGACCUCAGGCCCGAAGCGUGGCGGCACCUGCCGCCGGUGGUAAAAAAGAUCGGAAGAGCACACGUCU

Variants of: B1
Assay: aptazyme ON/OFF ratio, guanine; higher = stronger switching; co-transcriptional cleavage with and without guanine

Aptazyme ON/OFF ratio, 1.25:
U8A G9A U10A C12G C13A
U7G U10G U11C C12G
U7G U10G U11C C12A
U8A G9A U10G U11A C12A C13U
U8A G9A U10A U11C C12A C13U

Aptazyme ON/OFF ratio, 1.65:
U8A G9A U10A

Aptazyme ON/OFF ratio, 1.39:
U8A G9A U10A C12A C13U
U8A G9A U11A

Aptazyme ON/OFF ratio, 1.35:
U7G U10G U11C C12G C13U

Aptazyme ON/OFF ratio, 1.2:
U8A G9A U10A C12U C13A
U7G U10G U11G C13U
U7G U11G C12U
U8A G9A U10G U11G C12U C13U
U7G U11G C12U C13U
U8A G9A U10A C13U
U8A G9A C12G C13G

Aptazyme ON/OFF ratio, 1.19:
U8A G9A U10C U11A C12G C13A
U8A G9A C12U C13A
U8A G9A U10C U11G C12A C13A
U8A G9A U10C C12G C13A
U8A C12A C13U
U8A G9A U10G U11A C12A C13A
U8A G9A U10G U11A C12G C13G
U8A G9A U10A U11C C12A C13A
U8A G9A C13A

Aptazyme ON/OFF ratio, 1.22:
U8A G9A U10C U11A C12G C13U
U8A G9A U10C C12G C13U
U7G U11C C12A C13U
U8A G9A U10C U11G C12U C13G
U8A G9A U10C U11G C12U C13U

Aptazyme ON/OFF ratio, 1.33:
U8A G9A C12U
U8A G9A U10A C12U C13U
U8A G9A U10C U11A C12U C13U

Aptazyme ON/OFF ratio, 1.14:
U7G U10G U11A C12A
U8A G9A U10A U11C C12U C13A
U7G U11G C12U C13A
U7G U10G U11C C12G C13A

Aptazyme ON/OFF ratio, 1.06:
U8A G9A U10A U11A C13G

Aptazyme ON/OFF ratio, 2.54:
U8A G9A U10C

Aptazyme ON/OFF ratio, 1.11:
U7G U10G U11C C13A
U8A C13G
U8A G9A C12U C13U
U7G U11G C12A
U7G U10G U11G C12G C13G

Aptazyme ON/OFF ratio, 1.42:
U8A G9A U10A C12G C13U
U8A G9A U10G C12A C13A

Aptazyme ON/OFF ratio, 1.03:
U8A G9A U10C U11C C12G C13A
U7G U11C C13A

Aptazyme ON/OFF ratio, 1.53:
U7G U10G U11G

Aptazyme ON/OFF ratio, 1.24:
U7G U10G U11G C12U
U8A G9A U10A C12U
U8A C13A
U8A G9A U10A C12U C13G
U8A G9A U10C C12G C13G
U8A C12A C13A
U8A G9A U10G U11A C12A C13G
U8A G9A U10A U11A C12A
U8A G9A U10A U11A C12G
U8A G9A U10G U11A C12G C13A
U8A G9A U10C U11A C12A C13G
U7G U10G C12U C13G

Aptazyme ON/OFF ratio, 1.05:
U8A G9A U10G U11G C12G C13U
U8A G9A U10G U11C C13G
U8A G9A U10G U11G C13U
U8A G9A U10C U11C C12U C13U
U8A G9A U10C U11C C12U C13G
U8A G9A U10A U11C C13U
U8A G9A U10C U11C C12G
U8A G9A U10G U11C

Aptazyme ON/OFF ratio, 1.1:
U7G U10G U11A C12U
U7G U11C C12A C13G
U8A G9A U10A C13G
U7G U10G U11G C12G C13A
U8A G9A U10A U11A C12A C13G

Aptazyme ON/OFF ratio, 1.28:
U8A G9A U10A C12G C13G

Aptazyme ON/OFF ratio, 1.18:
U8A G9A U10A U11A C12G C13G
U7G U10G U11G C13G
U8A G9A C12G C13U
U7G U10G C12U C13A

Aptazyme ON/OFF ratio, 0.98:
U8A G9A U10G U11A C12U C13U

Aptazyme ON/OFF ratio, 1.36:
U8A G9A U10G U11G C12U C13A
U8A G9A C12G C13A
U8A G9A U10G C12A C13U

Aptazyme ON/OFF ratio, 1.01:
U8A G9A U10A U11G C12A
U8A G9A U10G U11G C12G C13A

Aptazyme ON/OFF ratio, 1.26:
U8A G9A U10G U11G C12U C13G
U8A G9A U10A C13A
U7G U11C C12G

Aptazyme ON/OFF ratio, 1.13:
U7G U10G U11C C13U
U8A G9A U10C U11C C12G C13G
U8A C12A C13G
U8A G9A U10A U11A C12U

Aptazyme ON/OFF ratio, 1.23:
U8A G9A U10C U11G C12A C13G
U7G U11G C12G

Aptazyme ON/OFF ratio, 1.04:
U8A G9A U10G U11C C13U
U8A G9A U10C U11C C12U C13A
U8A G9A U10A U11C C13G
U8A G9A U10A U11C C13A

Aptazyme ON/OFF ratio, 1.91:
U8A G9A

Aptazyme ON/OFF ratio, 1.15:
U7G U10G U11G C12G
U8A G9A U10A U11G C12U
U8A G9A U10A U11G C12G
U8A G9A U10A U11C C12U C13U
U8A G9A U10G U11C C12U C13U
U8A G9A U10G C12A C13G

Aptazyme ON/OFF ratio, 1.27:
U8A G9A U10A U11A C13A
U8A G9A U10A U11A C12A C13U
U7G U11C C12U

Aptazyme ON/OFF ratio, 1.46:
U8A G9A U10G

Aptazyme ON/OFF ratio, 1.4:
U8A G9A U10A U11G C12G C13G

Aptazyme ON/OFF ratio, 1.07:
U7G U10G U11C C13G
U8A G9A U10C U11C C12G C13U
U8A G9A U10G U11A C12U C13G
U7G U10G U11C
U8A G9A U10G U11G C12G C13G
U7G U11C C13U
U8A G9A U10G U11C C13A
U7G U10G U11C C12G C13G
U8A G9A U10C U11C C12U
U8A G9A U10G U11G

Aptazyme ON/OFF ratio, 1.43:
U8A G9A U10A C12A
U8A C13U
U7G U10G C12U C13U

Aptazyme ON/OFF ratio, 1.29:
U8A G9A U10A U11A C12G C13A
U8A G9A U10A U11G C12G C13U
U7G U10G U11G C12G C13U
U8A G9A U10A U11A C12A C13A

Aptazyme ON/OFF ratio, 1.08:
U7G U10G U11G C12A
U7G U10G U11A C12G
U7G U11C C13G
U8A G9A U10C U11C C12A

Aptazyme ON/OFF ratio, 1.16:
U8A G9A U10A U11A C12G C13U
U7G U10G U11G C13A
U8A G9A U10G U11C C12U C13G
U8A G9A U10A U11C C12A C13G
U8A G9A U10C U11A C12A C13A

Aptazyme ON/OFF ratio, 1.09:
U8A G9A U10A U11A C13U

Aptazyme ON/OFF ratio, 1.41:
U8A G9A C12G
U8A G9A U10G C12U C13U

Aptazyme ON/OFF ratio, 1.02:
U8A G9A U10G U11A

Aptazyme ON/OFF ratio, 1.34:
U8A G9A C12A
U8A G9A U10G C12U C13A

Aptazyme ON/OFF ratio, 1.17:
U8A G9A U10A C12G
U8A G9A U10G C12U C13G
U8A G9A C12U C13G
U8A G9A U10A U11C C12U C13G
U8A G9A U10C U11G C12A C13U
U8A G9A U10A C12A C13A
U8A G9A U10A C12A C13G
U7G U10G U11C C12U
U8A G9A U10G U11G C13A
U8A G9A U10C U11G C12U C13A
U8A G9A U10C U11A C12A C13U

Aptazyme ON/OFF ratio, 1.31:
U8A G9A U10C U11A C12U C13A

Aptazyme ON/OFF ratio, 2.82:
U8A

Aptazyme ON/OFF ratio, 1.12:
U8A G9A U10C U11A C12G C13G
U8A G9A U10G U11A C12U C13A
U7G U11C C12A C13A
U8A G9A U10G U11G C13G
U7G U11G C12U C13G
U8A G9A U10G U11A C12G C13U
U8A G9A C13G

Aptazyme ON/OFF ratio, 1.21:
U7G U10G U11A
U8A G9A U10A U11G C12G C13A
U8A G9A U10C U11A C12U C13G
U8A G9A U10G U11C C12U C13A
U7G U11C C12A
